Experimental findings from US20060234926 are described below.

The target in this series is beta2-microglobulin, native monomer (UniProt P61769). The series is described as follows: SPR. As to conditions: at 0.5 uM RNA; 317 nM at 0.1 uM RNA; TMGA buffer pH 3.6.
Chain of beta2-microglobulin, native monomer (P61769 21-119): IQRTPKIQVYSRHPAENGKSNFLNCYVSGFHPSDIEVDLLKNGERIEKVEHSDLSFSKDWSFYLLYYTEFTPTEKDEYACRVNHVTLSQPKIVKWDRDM

“GGCNUGACANGGCAGGAUAGCCGGNCNANGCGANCNNUNGGNCCNCGANACCCGACNGUGG [N4]” gave a Kd of 104 nM.
